Test results: the RNAGym collection of RNA variant scans (doi:10.7554/elife.90254)

B1: LINE1-mini (parent)
chain: GGCAGAGCUCAACACAGCGUGGCAAAGUGGCUGUGGCUAGACUGCC

Variants of: B1
Test: self-cleavage, relative activity (ratio to wild type); higher = more cleavage; in vitro, sequencing; the parent is a self-cleaving ribozyme

Row | Variant | self-cleavage
1 | GGCAGAGCUCAAAACACCGUGGCAAAGUGGCUGUGGCUAGACUGCC | 0.1
2 | GGCAGAGCUCAAAACAGAGUGGCAAAGUGGCUGUGGCUAGACUGCC | 0.09
3 | GGCAGAGCUCAAAACAGUGUGGCAAAGUGGCUGUGGCUAGACUGCC | 0.09
4 | GGCAGAGCUCAAAACAGGGUGGCAAAGUGGCUGUGGCUAGACUGCC | 0.12
5 | GGCAGAGCUCAAAACAGCGUGGCAAAGUGGCUGUGGCUAGACUACC | 0.09
6 | GGCAGAGCUCAAAACAGCGUGGCAAAGUGGCUGUGGCUAGACUUCC | 0.12
7 | GGCAGAGCUCAAAACAGCGUGGCAAAGUGGCUGUGGCUAGACUCCC | 0.07
8 | GGCAGAGCUCAUCACAGCGUGGCAAAGUGGCUGUGGCUAGACGGCC | 0.12
9 | GGCAGAGCUCAAAACAGCGUGGCAAAGUGGCUGUGGCUACACUGCC | 0.07
10 | GGCAGAGCUCAAAACAGCGUGGCAAAGUGGCUGUGGCUAUACUGCC | 0.09
11 | GGCAGAGCUCAAAACAGCGUGGCAAAGUGGCUGUGGCUAAACUGCC | 0.09
12 | GGCAGAGCUCAAGACAGCGUGGCACAGUGGCUGUGGCUAGACUGCC | 0.18
13 | GGCAGAGCUCAAAACAGCGUGGCAGAGUGGCUGUGGCUAGACUGCC | 0.1
14 | GGCAGAGCUCAAAACAGCGUGGCACAGUGGCUGUGGCUAGACUGCC | 0.06
15 | GGCAGAGCUCAAAACAGCGUGGCAUAGUGGCUGUGGCUAGACUGCC | 0.11
16 | GGCAGAGCUCAAAACAGCGUGGCAAAGAGGCUGUGGCUAGACUGCC | 0.07
17 | GGCAGAGCUCAAAACAGCGUGGCAAAGGGGCUGUGGCUAGACUGCC | 0.09
18 | GGCAGAGCUCAAAACAGCGUGGCAAAGCGGCUGUGGCUAGACUGCC | 0.15
19 | GGCAGAGCUCAAAACAGCGUGGCAAAGUGGCUGUGGCAAGACUGCC | 0.05

Row | Variant | self-cleavage
20 | GGCAGAGCUCAAAACAGCGUGGCAAAGUGGCUGUGGCCAGACUGCC | 0.1
21 | GGCAGAGCUCAAAACAGCGUGGCAAAGUGGCUGUGGCGAGACUGCC | 0.03
22 | GGCAGAGCUCAAAACAGCGUGGCAAAGUGGCUGUGGCUAGACAGCC | 0.21
23 | GGCAGAGCUCAAAACAGCGUGGCAAAGUGGCUGUGGCUAGACGGCC | 0.18
24 | GGCAGAGCUCAAAACAGCGUGGCAAAGUGGCUGUGGCUAGACCGCC | 0.08
25 | GGCAGAGCUCAAAACAGCGUGGCAAGGUGGCUGUGGCUAGACUGCC | 0.12
26 | GGCAGAGCUCAAAACAGCGUGGCAACGUGGCUGUGGCUAGACUGCC | 0.18
27 | GGCAGAGCUCAAAACAGCGUGGCAAUGUGGCUGUGGCUAGACUGCC | 0.11
28 | GGCAGAGCUCAAGACUGCGUGGCAAAGUGGCUGUGGCUAGACUGCC | 0.15
29 | GGCAGAGCUCAAGACGGCGUGGCAAAGUGGCUGUGGCUAGACUGCC | 0.01
30 | GGCAGAGCUCAAGACCGCGUGGCAAAGUGGCUGUGGCUAGACUGCC | 0.08
31 | GGCAGAGCUCAAAACGGCGUGGCAAAGUGGCUGUGGCUAGACUGCC | 0.03
32 | GGCAGAGCUCAAAACCGCGUGGCAAAGUGGCUGUGGCUAGACUGCC | 0.08
33 | GGCAGAGCUCAAAACUGCGUGGCAAAGUGGCUGUGGCUAGACUGCC | 0.09
34 | GGCAGAGCUCAAAACAGCGUGGCAAAGUAGCUGUGGCUAGACUGCC | 0.19
35 | GGCAGAGCUCAAAACAGCGUGGCAAAGUUGCUGUGGCUAGACUGCC | 0.2
36 | GGCAGAGCUCAAAACAGCGUGGCAAAGUCGCUGUGGCUAGACUGCC | 0.06
37 | GGCAGAGCUCAAAAGAGCGUGGCAAAGUGGCUGUGGCUAGACUGCC | 0.08
38 | GGCAGAGCUCAAAAAAGCGUGGCAAAGUGGCUGUGGCUAGACUGCC | 0.08

Row | Variant | self-cleavage
39 | GGCAGAGCUCAAAAUAGCGUGGCAAAGUGGCUGUGGCUAGACUGCC | 0.12
40 | GGCAGAGCUCAAAACAGCGUGGCAAAGUGGCUGUUGCUAGACUGCC | 1.13
41 | GGCAGAGCUCAAAACAGCGUGGCAAAGUGGCUGUCGCUAGACUGCC | 0.07
42 | GGCAGAGCUCAAAACAGCGUGGCAAAGUGGCUGUAGCUAGACUGCC | 0.15
43 | GGCAGAGCUCAAAACAGCGUGGCAAAGUGGCUUUGGCUAGACUGCC | 0.05
44 | GGCAGAGCUCAAAACAGCGUGGCAAAGUGGCUCUGGCUAGACUGCC | 0.06
45 | GGCAGAGCUCAAAACAGCGUGGCAAAGUGGCUAUGGCUAGACUGCC | 0.08
46 | GGCAGAGCUCAAAACAGCGUGGCAAAGUGGCUGUGGCUAGACUGCC | 0.15
47 | GGCAGAGCUCAAGACAGCGUGGCAAAGUGGCUGUGGCUAGACUGCC | 0.22
48 | GGCAGAGCUCAAAACAGCGUGGCAAAGUGGCUGUGGAUAGACUGCC | 0.09
49 | GGCAGAGCUCAAAACAGCGUGGCAAAGUGGCUGUGGGUAGACUGCC | 0.05
50 | GGCAGAGCUCAAAACAGCGUGGCAAAGUGGCUGUGGUUAGACUGCC | 0.34
51 | GGCAGAGCUCAAAACAGCGUGGCAAAGUGGCUGUGGCUUGACUGCC | 0.23
52 | GGCAGAGCUCAAAACAGCGUGGCAAAGUGGCUGUGGCUCGACUGCC | 0.17
53 | GGCAGAGCUCAAAACAGCGUGGCAAAGUGGCUGUGGCUGGACUGCC | 0.15
54 | GGCAGAGCUCAAAACAGCGUGGCAAAGUGGCUGUGGCUAGGCUGCC | 0.12
55 | GGCAGAGCUCAAAACAGCGUGGCAAAGUGGCUGUGGCUAGUCUGCC | 0.14
56 | GGCAGAGCUCAAAACAGCGUGGCAAAGUGGCUGUGGCUAGCCUGCC | 0.06
